Measured values reported in paper PMC2119506.

Target: CSVTCG binding protein (human (endogenous in A549))
Experiment: radioligand binding

percent inhibition of binding: 64 % inhibition
Substance: thrombospondin (from UniProt P07996 19-1170) (natural protein)
